Data reported in patent US20260201045A1 (Regeneron, published 2026).
Substitutions are numbered along the chain they refer to.

Key:
[1] = target: T1, full length human CNTFR (hCNTFR, amino acids 1-372, UniProtKB/Swiss-Prot Accession #P26992) (human, UniProt P26992 23-342); test: flow cytometry on HEK293/hCNTFR cells
T1 construct: also called HEK293/hCNTFR; CNTFR endogenously expressed on IMR-32/STAT3-luc cells
T1 sequence: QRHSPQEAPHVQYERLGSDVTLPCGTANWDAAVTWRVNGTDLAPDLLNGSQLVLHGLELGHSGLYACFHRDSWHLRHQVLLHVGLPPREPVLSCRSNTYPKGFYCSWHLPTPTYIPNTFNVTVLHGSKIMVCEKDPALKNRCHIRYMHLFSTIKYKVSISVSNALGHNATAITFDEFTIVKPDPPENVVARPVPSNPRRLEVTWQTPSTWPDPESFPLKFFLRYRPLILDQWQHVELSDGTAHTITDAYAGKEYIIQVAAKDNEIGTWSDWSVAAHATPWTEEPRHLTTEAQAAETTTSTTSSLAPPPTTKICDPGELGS
Protocol: (§1) To assess binding of the anti-CNTFR antibodies to CNTFR receptors expressed on the cell surface, each of the HEK293/CNTFR cells listed above or HEK293 parental cells were diluted to 5×10⁵ cells/well in 96-well v-bottom plates. […] Cells were fixed using BD CytoFix™ (Becton Dickinson, #554655), filtered, and then analyzed on IQuePlus® Flow Cytometer (Intellicyt®). Geometric Mean Fluorescent Intensity (MFI) values were calculated by Forecyt Software and plotted in GraphPad Prism using a 4-parameter logistic equation over the 8-point dose-response curve to obtain EC₅₀ values. […] The secondary only condition was excluded from the EC₅₀ calculation.

[2] = target: T2, human CNTFR extracellular domain expressed with a C-terminal mouse IgG2a Fc tag (human); test: SPR Biacore 4000, mAb captured by anti-human Fc, antigen injected, 37 C
T2 construct: also called hCNTFR-mFc; dimeric hCNTFR-mFc
T2 chain: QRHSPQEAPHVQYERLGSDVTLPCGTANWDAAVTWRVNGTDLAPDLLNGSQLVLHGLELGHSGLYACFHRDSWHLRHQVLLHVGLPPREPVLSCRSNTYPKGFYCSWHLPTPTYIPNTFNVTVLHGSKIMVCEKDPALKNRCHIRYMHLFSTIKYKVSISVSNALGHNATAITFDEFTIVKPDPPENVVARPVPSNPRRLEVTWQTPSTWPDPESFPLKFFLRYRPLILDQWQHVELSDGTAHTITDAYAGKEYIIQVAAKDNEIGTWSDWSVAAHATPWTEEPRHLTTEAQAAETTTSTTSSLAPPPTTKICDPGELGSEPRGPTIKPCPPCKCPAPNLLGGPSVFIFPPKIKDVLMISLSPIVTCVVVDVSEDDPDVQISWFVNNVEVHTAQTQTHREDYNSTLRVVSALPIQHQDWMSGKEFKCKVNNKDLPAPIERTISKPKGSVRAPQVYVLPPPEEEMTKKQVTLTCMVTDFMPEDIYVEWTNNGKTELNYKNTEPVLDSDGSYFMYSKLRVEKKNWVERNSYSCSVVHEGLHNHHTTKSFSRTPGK
Protocol: (§2) Equilibrium dissociation constants (KD) for CNTFR binding to purified anti-CNTFR monoclonal antibodies were determined using a real-time surface plasmon resonance (SPR) based Biacore 4000 biosensor. All binding studies were performed in 10 mM HEPES, 150 mM NaCl, 3 mM EDTA, and 0.05% v/v surfactant Tween-20, pH 7.4 (HBS-ET) running buffer at 25° C. and 37° C. The Biacore CM4 sensor surface was first derivatized by amine coupling with a monoclonal mouse anti-human Fc antibody (REGN2567) to capture anti-CNTFR monoclonal antibodies. Different concentrations of CNTFR reagents, human CNTFR extracellular domain expressed with a C-terminal myc-myc-hexahistidine tag (hCNTFR-mmh; SEQ ID NO:42), monkey CNTFR extracellular domain expressed with a C-terminal myc-myc-hexahistidine tag (mfCNTFR-mmh; SEQ ID NO:43), mouse CNTFR extracellular domain expressed with a C-terminal myc-myc-hexahistidine tag (mCNTFR-mmh; SEQ ID NO:44), and human CNTFR extracellular domain expressed with a C-terminal mouse IgG2a Fc tag (hCNTFR-mFc; SEQ ID NO: 45), at concentrations ranging from 6.25 nM to 100 nM in a series of 4-fold dilutions prepared in HBS-ET running buffer were injected at a flow rate of 30 μL/min for 2.5 minutes. The dissociation of different CNTFR reagents bound to anti-CNTFR monoclonal antibodies was monitored for 10 minutes in HBS-ET running buffer. At the end of each cycle, the anti-CNTFR monoclonal antibodies capture surface was regenerated using a 12 sec injection of 20 mM H3PO4. The association rate (ka) and dissociation rate (kd) were determined by fitting the real-time specific binding sensorgrams to a 1:1 binding model with mass transport limitation using Scrubber 2.0c curve-fitting software. Binding dissociation equilibrium constant (KD) and dissociative half-life (t½) were calculated from the kinetic rates as: […]

[3] = target: T2, human CNTFR extracellular domain …; test: SPR Biacore 4000, mAb captured by anti-human Fc, antigen injected, 25 C
Protocol: as §2

[4] = target: T3, mouse CNTFR extracellular domain expressed with a C-terminal myc-myc-hexahistidine tag (mouse, UniProt O88507 23-342); test: as above
T3 construct: The entry holds the tag as well; also called mCNTFR-mmh
Protocol: as §2

[5] = target: T4, human CNTFR extracellular domain (Q23-V105)/mCNTFR (G106-S342) expressed with a C-terminal … (human/mouse chimera, UniProt P26992 23-342); test: SPR Biacore S200, antigen captured by anti-myc, mAb injected, 25 C
T4 construct: Human/mouse chimeric CNTFR domain protein; also called hCNTFR (Q23-V105)/mCNTFR (G106-S342).mmh; hCNTFR (Q23-V105)_mCNTFR (G106-S342).mmh
T4 chain: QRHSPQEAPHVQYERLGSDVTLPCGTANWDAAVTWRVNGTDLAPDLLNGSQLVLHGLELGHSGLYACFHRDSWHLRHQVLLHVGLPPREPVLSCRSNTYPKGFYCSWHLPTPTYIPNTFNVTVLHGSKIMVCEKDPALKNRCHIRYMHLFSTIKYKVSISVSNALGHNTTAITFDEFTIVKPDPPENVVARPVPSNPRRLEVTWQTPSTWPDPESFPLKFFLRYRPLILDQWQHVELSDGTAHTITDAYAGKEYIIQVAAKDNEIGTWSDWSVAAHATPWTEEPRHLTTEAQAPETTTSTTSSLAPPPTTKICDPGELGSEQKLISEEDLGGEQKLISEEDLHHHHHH

[6] = target: T4, human CNTFR extracellular domain …; test: SPR Biacore S200, antigen captured by anti-myc, 100 nM mAb injected, 25 C
[7] = target: T5, human CNTFR extracellular domain (Q23-D205)/mCNTFR (P206-S342) expressed with a C-terminal … (human/mouse chimera, UniProt P26992 23-342); test: as above
T5 construct: Human/mouse chimeric CNTFR domain protein; also called hCNTFR (Q23-D205)/mCNTFR (P206-S342).mmh; hCNTFR (Q23-D205)_mCNTFR(P206-S342).mmh

[8] = target: T6, human CNTFR extracellular domain expressed with a C-terminal myc-myc-hexahistidine tag (human, UniProt P26992 23-342); test: as above
T6 construct: The entry holds the tag as well; also called hCNTFR-mmh; hCNTFR.mmh

[9] = target: T7, full length mouse CNTFR (mCNTFR, amino acids 1-372, UniProtKB/Swiss-Prot Accession #088507) (mouse, UniProt O88507 23-342); test: flow cytometry on HEK293/mCNTFR cells
T7 construct: whole, on cells; also called HEK293/mCNTFR
T7 sequence (looked up): T1 sequence with R2K, S18A, N28S, V53I, H55R, G56S, A169T, A294P
Protocol: as §1

EC50 [1]: 4.33 nM | Max. Fold Binding [1]: 510 fold over secondary antibody alone | Kd [2]: 27.2 nM | koff [2]: 0.000784 s⁻¹ | kon [2]: 28800 M⁻¹ s⁻¹ | t½ [2]: 15 min | Kd [3]: 7.22 nM | koff [3]: 0.000125 s⁻¹ | kon [3]: 17300 M⁻¹ s⁻¹ | t½ [3]: 93 min | binding result [4]: no binding (tested: 100 nM) | binding result [5]: no binding (tested: 100 nM) | 100 nM mAb Bound (RU) [6]: 1 RU | 100 nM mAb Bound (RU) [7]: 89 RU | 100 nM mAb Bound (RU) [8]: 80 RU | binding result [9]: no binding (tested: 375 nM)
B1: mAb25311P2 (antibody, human IgG4 S228P, kappa, V domains shown)
VH: QVQLVESGGGVVQPGRSLRLSCVASGFTFSTSVMHWVRQAPGKGLEWVANIWYDGINKFYVDSVKGRFTISRDNSKNTLYLQMNSLRAEDTAVYYCAREFWSAFDLWGQGTMVTVSS
VL: not shown
